The target in series [1] is BODIPY-FL Srs2(1107-1174) (S. cerevisiae) (UniProt P12954). Put plainly: fluorescence polarisation. For orientation: Polarisation of emitted light reports the rotation of a fluorescent probe.
Series [2] deals with Srs2(1137-1174) (S. cerevisiae) (UniProt P12954). In words: fluorescence polarisation.
Series [3] deals with the molecule itself. In words: crystal structure.
Another series deals with T1, Srs2(1107-1174) Q1149E (S. cerevisiae, UniProt P12954 1107-1174, Q1149E, BODIPY-FL conjugated (FP was done with BODIPY-FL conjugated Srs2)).
T1 sequence: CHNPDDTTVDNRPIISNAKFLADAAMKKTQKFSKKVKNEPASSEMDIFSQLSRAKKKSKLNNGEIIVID
In words: fluorescence polarisation.

Another series addresses T2, Srs2(1107-1174) D1151A (S. cerevisiae, UniProt P12954 1107-1174, D1151A, BODIPY-FL conjugated (FP was done with BODIPY-FL conjugated Srs2)).
T2 sequence: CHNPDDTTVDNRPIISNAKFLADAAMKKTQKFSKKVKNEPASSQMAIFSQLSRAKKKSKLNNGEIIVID
Put plainly: fluorescence polarisation.

In another series the target is T3, Srs2(1107-1174) I1152A (S. cerevisiae, UniProt P12954 1107-1174, I1152A, BODIPY-FL conjugated (FP was done with BODIPY-FL conjugated Srs2)).
T3 sequence: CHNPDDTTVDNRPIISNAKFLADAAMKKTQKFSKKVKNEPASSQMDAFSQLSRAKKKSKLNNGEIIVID
In words: fluorescence polarisation.

A further series deals with T4, Srs2(1107-1174) F1153A (S. cerevisiae, UniProt P12954 1107-1174, F1153A, BODIPY-FL conjugated (FP was done with BODIPY-FL conjugated Srs2)).
T4 sequence: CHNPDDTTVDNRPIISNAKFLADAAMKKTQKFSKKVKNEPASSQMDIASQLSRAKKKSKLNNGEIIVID
Put plainly: fluorescence polarisation.

A further series addresses T5, Srs2(1107-1174) Q1155E (S. cerevisiae, UniProt P12954 1107-1174, Q1155E, BODIPY-FL conjugated (FP was done with BODIPY-FL conjugated Srs2)).
T5 sequence: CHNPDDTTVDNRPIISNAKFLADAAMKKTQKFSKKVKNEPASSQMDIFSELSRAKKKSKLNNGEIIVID
Put plainly: fluorescence polarisation.

The target of the next series is T6, Srs2(1107-1174) L1156A (S. cerevisiae, UniProt P12954 1107-1174, L1156A, BODIPY-FL conjugated (FP was done with BODIPY-FL conjugated Srs2)).
T6 sequence: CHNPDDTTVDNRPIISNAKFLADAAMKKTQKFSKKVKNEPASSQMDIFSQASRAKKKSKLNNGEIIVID
In words: fluorescence polarisation.

The target of a further series is T7, His6-Eco1 (S. cerevisiae, UniProt P43605 1-281).
T7 sequence (looked up): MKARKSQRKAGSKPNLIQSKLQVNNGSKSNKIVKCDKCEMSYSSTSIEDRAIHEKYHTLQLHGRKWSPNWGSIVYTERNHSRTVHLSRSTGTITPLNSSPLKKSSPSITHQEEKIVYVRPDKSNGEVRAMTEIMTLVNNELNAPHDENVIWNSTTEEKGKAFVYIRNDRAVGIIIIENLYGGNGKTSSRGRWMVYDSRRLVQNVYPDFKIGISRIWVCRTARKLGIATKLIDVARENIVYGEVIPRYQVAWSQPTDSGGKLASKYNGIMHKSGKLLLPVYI
Put plainly: pull-down.

Series [4] deals with the molecule itself. Put plainly: crystal structure. The source holds these as a separate data set.

The record followed here is PMC3306252 (Nature, 2012).

For orientation: Kd means the equilibrium constant for the complex coming apart. The low end stands for higher affinity, the high end for lower affinity. In general, stoichiometry N refers to the number of molecules, sites or subunits per partner or assembly.

Molecule “GST-SUMO (from UniProt Q12306 1-101) (natural protein)” displayed a Kd in [1] of 0.877 µM. In series [2], this molecule showed a fold weaker than Srs2(1107-1174) of 4 fold.
For “PCNA (yeast proliferating cell nuclear antigen, trimer; variant not named) (from UniProt P15873 1-258) (natural protein)”, in that order: 0.169 µM and 3 fold.
“PCNA^mono (N-ethylmaleimide-treated PCNA) (from UniProt P15873 1-258) (natural protein)”: the fold worse than PCNA^tri in series [1] amounted to 6.5 fold.
With “SUMO_K127-PCNA^mono (PCNA K164R) (from UniProt P15873 1-258; Q12306 19-98) (complex)”, the equilibrium dissociation constant (Kd) in [1] came out at 0.014 µM.
On to “SUMO_K127-PCNA^tri (PCNA K164R) (from UniProt P15873 1-258; Q12306 19-98) (complex)”, for which the Kd in series [1] was 0.0251 µM.
The same measure, in the same setting: for “SUMO_K164-PCNA^mono K127G (from UniProt P15873 1-258; Q12306 19-98) (complex)” the value was 0.079 µM.
The molecule “SUMO_K164-PCNA^tri K127G (from UniProt P15873 1-258; Q12306 19-98) (complex)” had a Kd in [1] of 0.0263 µM. The same molecule gave a fold tighter than Srs2(1107-1174) in series [2] of 8 fold.

B1: PCNA^tri K127G (natural protein, budding yeast)
chain: MLEAKFEEASLFKRIIDGFKDCVQLVNFQCKEDGIIAQAVDDSRVLLVSLEIGVEAFQEYRCDHPVTLGMDLTSLSKILRCGNNTDTLTLIADNTPDSIILLFEDTKKDRIAEYSLKLMDIDADFLGIEELQYDSTLSLPSSEFSKIVRDLSQLSDSINIMITKETIKFVADGDIGSGSVIIKPFVDMEHPETSIKLEMDQPVDLTFGAKYLLDIIKGSSLSDRVGIRLSSEAPALFQFDLKSGFLQFFLAPKFNDEE
As to B1, in “crystal structure [3]”, the “stoichiometry N” value came to 3. The figures for the “fold defect in Kd against wild-type Srs2(1107-1174)” value with Srs2(1107-1174) Q1149E, in the series with Srs2(1107-1174) D1151A and with Srs2(1107-1174) I1152A were 3 fold, 10 fold and 60 fold, respectively. Moreover, the “fold reduced affinity against wild-type Srs2(1107-1174)” value with Srs2(1107-1174) F1153A stood at 9 fold; in the series with Srs2(1107-1174) Q1155E, 31 fold; with Srs2(1107-1174) L1156A, 73 fold.

B2: PCNA FLKI(125-128)AAAA (natural protein, budding yeast)
chain: MLEAKFEEASLFKRIIDGFKDCVQLVNFQCKEDGIIAQAVDDSRVLLVSLEIGVEAFQEYRCDHPVTLGMDLTSLSKILRCGNNTDTLTLIADNTPDSIILLFEDTKKDRIAEYSLKLMDIDADAAAAEELQYDSTLSLPSSEFSKIVRDLSQLSDSINIMITKETIKFVADGDIGSGSVIIKPFVDMEHPETSIKLEMDQPVDLTFGAKYLLDIIKGSSLSDRVGIRLSSEAPALFQFDLKSGFLQFFLAPKFNDEE
Regarding B2, in the series with His6-Eco1, the binding result was “binds”.

B3: PCNA K127G, NEM-modified (the PCNA part of SUMO_K164-PCNA^mono) (natural protein, budding yeast)
chain: MLEAKFEEASLFKRIIDGFKDCVQLVNFQCKEDGIIAQAVDDSRVLLVSLEIGVEAFQEYRCDHPVTLGMDLTSLSKILRCGNNTDTLTLIADNTPDSIILLFEDTKKDRIAEYSLKLMDIDADFLGIEELQYDSTLSLPSSEFSKIVRDLSQLSDSINIMITKETIKFVADGDIGSGSVIIKPFVDMEHPETSIKLEMDQPVDLTFGAKYLLDIIKGSSLSDRVGIRLSSEAPALFQFDLKSGFLQFFLAPKFNDEE
modifications: N-ethylmaleimide on C22 and C81; K164 conjugated to SUMO G98
Take B3: the binding result in the series “crystal structure [4]” is listed as “binds”.
